Results reported in patent US20040081963.

Molecular target: Sso7d-ΔTaq (wild-type fusion) G24W (Sso7d numbering; reverts the mutant fusion to wild type) (Sulfolobus solfataricus? / Thermus aquaticus?) (UniProt P19821)
Settings: PCR yield ratio primer 57F over 57F5/6, reverse primer 732R, annealing 64 C

UniProt P19821, sequence (P19821 whole entry, stated change not applied, the tested form may be a part): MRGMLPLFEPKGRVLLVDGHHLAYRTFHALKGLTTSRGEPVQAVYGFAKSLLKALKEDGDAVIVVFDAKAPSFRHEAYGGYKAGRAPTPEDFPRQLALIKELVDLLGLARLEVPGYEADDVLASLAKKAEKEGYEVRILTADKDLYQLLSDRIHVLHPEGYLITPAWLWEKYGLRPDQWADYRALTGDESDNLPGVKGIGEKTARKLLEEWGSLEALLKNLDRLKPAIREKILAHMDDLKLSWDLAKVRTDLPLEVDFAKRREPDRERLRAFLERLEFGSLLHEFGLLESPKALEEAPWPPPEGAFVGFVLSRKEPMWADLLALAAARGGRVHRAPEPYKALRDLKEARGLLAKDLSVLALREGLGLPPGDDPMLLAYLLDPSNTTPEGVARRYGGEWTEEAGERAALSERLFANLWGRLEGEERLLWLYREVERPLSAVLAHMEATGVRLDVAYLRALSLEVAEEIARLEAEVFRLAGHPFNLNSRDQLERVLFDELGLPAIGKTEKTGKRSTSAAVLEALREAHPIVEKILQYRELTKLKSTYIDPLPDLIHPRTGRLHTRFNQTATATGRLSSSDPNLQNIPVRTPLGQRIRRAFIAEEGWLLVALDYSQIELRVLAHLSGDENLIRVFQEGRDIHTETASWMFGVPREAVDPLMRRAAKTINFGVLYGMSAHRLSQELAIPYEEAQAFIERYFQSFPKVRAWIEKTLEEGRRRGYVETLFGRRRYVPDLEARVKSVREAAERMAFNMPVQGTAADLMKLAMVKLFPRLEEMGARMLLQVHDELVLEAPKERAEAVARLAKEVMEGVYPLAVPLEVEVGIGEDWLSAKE

Sequence: TCCGCCCTTCTTCGTCATAACT (double strand) [mismatched primer 57F5/6 on lambda DNA]
- PCR match/mismatch yield ratio (match/mismatch yield ratio): 0.92
